According to patent publication US20040248202A1 (WISCONSIN ALUMNI RESEARCH FOUNDATION, published 2004):

How the values were obtained:
Test in all cases: cell-based or functional assay
[1] = biological target: holotransducin
[2] = biological target: holotransducin; remark: listed apart in the source
[3] = biological target: holotransducin; remark: listed apart in the source

Binder | Activation (x100%) Over Basal Exchange [1] | Specific counts (Lattice Form), 10 Minutes, GTPyS uptake [1] | Activation (Fold increase) over BR [2] | Activation (Fold increase) over Basal [2] | Specific counts (Lattice Form) (at 30 min), 35S-GTPyS uptake [2] | Activation (3C) over Basal Exchange, 100 uM GDP [3]
BR-Rhodopsin loop 3 chimera, Rhodopsin Insert Y223 to T251 (3B) (other) QAQITGRPEWIWLALGTALMGLGTLYFLVKGMGVSDPDAKKFYAITTLVPAIAFTMYLSMLLGYGLTMVPFGGEQNPIYWARYADWLFTTPLLLLDLALLVDADQGTILALVGADGIMIGTGLVGALTKVYSYRFVWWAISTAAMLYILYVLFFGFTYGQLVFTVKEAAAQQQESATTQKAEKEVTVASTFKVLRNVTVVLWSAYPVVWLIGSEGAGIVPLNIETLLFMVLDVSAKVGFGLILLRSRAIFGEAEAPEPSAGDGAAATSD | 1.17 x100% | 62800 specific counts | – | – | – | –
BR-Rhodopsin loop 3 chimera, Rhodopsin Insert Q225 to R252 (3H) (other) QAQITGRPEWIWLALGTALMGLGTLYFLVKGMGVSDPDAKKFYAITTLVPAIAFTMYLSMLLGYGLTMVPFGGEQNPIYWARYADWLFTTPLLLLDLALLVDADQGTILALVGADGIMIGTGLVGALTKVYSYRFVWWAISTAAMLYILYVLFFGFTQLVFTVKEAAAQQQESATTQKAEKEVTRVASTFKVLRNVTVVLWSAYPVVWLIGSEGAGIVPLNIETLLFMVLDVSAKVGFGLILLRSRAIFGEAEAPEPSAGDGAAATSD | – | – | 1.6 fold | 1.17 fold | 193000 specific counts | –
BR-Rhodopsin loop 3 chimera, Rhodopsin Insert G224 to M253 (3E) (other) QAQITGRPEWIWLALGTALMGLGTLYFLVKGMGVSDPDAKKFYAITTLVPAIAFTMYLSMLLGYGLTMVPFGGEQNPIYWARYADWLFTTPLLLLDLALLVDADQGTILALVGADGIMIGTGLVGALTKVYSYRFVWWAISTAAMLYILYVLFFGFTGQLVFTVKEAAAQQQESATTQKAEKEVTRMVASTFKVLRNVTVVLWSAYPVVWLIGSEGAGIVPLNIETLLFMVLDVSAKVGFGLILLRSRAIFGEAEAPEPSAGDGAAATSD | 1.46 x100% | 78400 specific counts | – | – | – | –
bacteriorhodopsin (other) QAQITGRPEWIWLALGTALMGLGTLYFLVKGMGVSDPDAKKFYAITTLVPAIAFTMYLSMLLGYGLTMVPFGGEQNPIYWARYADWLFTTPLLLLDLALLVDADQGTILALVGADGIMIGTGLVGALTKVYSYRFVWWAISTAAMLYILYVLFFGFTSKAESMRPEVASTFKVLRNVTVVLWSAYPVVWLIGSEGAGIVPLNIETLLFMVLDVSAKVGFGLILLRSRAIFGEAEAPEPSAGDGAAATSD | – | – | – | – | 118000 specific counts | –

Continued, values first:

Activation (x100%) Over Basal Exchange [1] | Specific counts (Lattice Form), 10 Minutes, GTPyS uptake [1] | Activation (Fold increase) over BR [2] | Activation (Fold increase) over Basal [2] | Specific counts (Lattice Form) (at 30 min), 35S-GTPyS uptake [2] | Activation (3C) over Basal Exchange, 100 uM GDP [3] | Binder
1 x100% | 53400 specific counts | – | – | – | – | BR-Rhodopsin loop 3 chimera, Rhodopsin Insert Q225 to T251 (3D) (other) QAQITGRPEWIWLALGTALMGLGTLYFLVKGMGVSDPDAKKFYAITTLVPAIAFTMYLSMLLGYGLTMVPFGGEQNPIYWARYADWLFTTPLLLLDLALLVDADQGTILALVGADGIMIGTGLVGALTKVYSYRFVWWAISTAAMLYILYVLFFGFTQLVFTVKEAAAQQQESATTQKAEKEVTVASTFKVLRNVTVVLWSAYPVVWLIGSEGAGIVPLNIETLLFMVLDVSAKVGFGLILLRSRAIFGEAEAPEPSAGDGAAATSD
1.44 x100% | – | 2.22 fold | 1.6 fold | 262000 specific counts | 1.67 fold | BR-Rhodopsin loop 3 chimera, Rhodopsin Insert Y223 to M253 (3C) (other) QAQITGRPEWIWLALGTALMGLGTLYFLVKGMGVSDPDAKKFYAITTLVPAIAFTMYLSMLLGYGLTMVPFGGEQNPIYWARYADWLFTTPLLLLDLALLVDADQGTILALVGADGIMIGTGLVGALTKVYSYRFVWWAISTAAMLYILYVLFFGFTYGQLVFTVKEAAAQQQESATTQKAEKEVTRMVASTFKVLRNVTVVLWSAYPVVWLIGSEGAGIVPLNIETLLFMVLDVSAKVGFGLILLRSRAIFGEAEAPEPSAGDGAAATSD
– | – | 1.55 fold | 1.1 fold | 183000 specific counts | – | BR-Rhodopsin loop 3 chimera, Rhodopsin Insert Y223 to R252 (3G) (other) QAQITGRPEWIWLALGTALMGLGTLYFLVKGMGVSDPDAKKFYAITTLVPAIAFTMYLSMLLGYGLTMVPFGGEQNPIYWARYADWLFTTPLLLLDLALLVDADQGTILALVGADGIMIGTGLVGALTKVYSYRFVWWAISTAAMLYILYVLFFGFTYGQLVFTVKEAAAQQQESATTQKAEKEVTRVASTFKVLRNVTVVLWSAYPVVWLIGSEGAGIVPLNIETLLFMVLDVSAKVGFGLILLRSRAIFGEAEAPEPSAGDGAAATSD
